This is an account of results in patent publication US11746336B2, “Producing 3-hydroxycarboxylic acid and ketone using polyketide synthases” (The Regents of the University of California, priority 2014, dated 2023).

Data set [1] addresses T1, LipPks1+TE (Kitasatospora aureofaciens, UniProt Q30CS2). Put plainly: Steady-state kinetic analysis of LipPks1+TE, extension substrate. The note with it: tested as potential extender substrate (data not shown). In kind it is biochemical, Streptomyces aureofaciens Tü117. As for the experimental part: Each time point was set up in a reaction volume of 75 μL. Samples containing 10 μM, 20 μM, or 40 μM methylmalonyl-CoA were individually incubated with 500 μM isovaleryl-CoA and 500 μM NADPH in the presence of 0.5 μM LipPks1+TE in 100 mM phosphate buffer, pH 7.2, containing 2.5 mM TCEP at 23° C. The reactions were quenched at different time points by adding 75 μL of methanol and subsequently filtered with an Amicon Ultra-0.5 mL Centrifugal Filter, 3K device (Millipore) at 23° C. 10 μL of the resulting solutions were analyzed by LC-MS. Authentic standard 1e was used to quantify the products in the LC-MS analysis. We assumed that ionization efficiencies of diastereomers were identical.
LC separation of the enzymatically generated products conducted at 50° C. with an Inertsil ODS-3 reverse-phase column (250 mm length, 2.1 mm internal diameter, […] particle size; GL Sciences) using a 1100 series high-performance liquid chromatography system (Agilent Technologies). The mobile phase was composed of 0.2% formic acid in water (solvent A) and 0.2% formic acid in methanol (solvent B). Products were separated using the following gradient: 60% to 100% B for 10 min, held at 100% B for 2 min, 100% to 60% B for 1 min, held at 60% B for 17 min. A flow rate of 0.14 mL/min was used throughout. […]

Data set [2] deals with T1, LipPks1+TE. Nature of the data set: Steady-state kinetic analysis of LipPks1+TE, starter substrates (LC-MS quantification of products 1a-f). In kind it is biochemical, Streptomyces aureofaciens Tü117.
Procedure: (§1) A Bradford protein assay was used to measure the concentration of LipPks1+TE. […] Each time point was set up in a reaction volume of 75 μL. Samples containing 20 μM, 40 μM, 80 μM, 160 μM, or 320 μM of acyl-CoA were individually incubated with 200 μM methymalonyl-CoA and 500 μM NADPH in the presence of 0.5 μM LipPks1+TE in 100 mM phosphate buffer, pH 7.2, containing 2.5 mM TCEP at 23° C. The reactions were quenched at different time points by adding 75 μL of methanol and subsequently filtered with an Amicon Ultra-0.5 mL Centrifugal Filter, 3K device (Millipore) at 23° C. 10 μL of the resulting solutions were analyzed by liquid chromatography-mass spectrometry (LC-MS). […] We assumed that ionization efficiencies of diastereomers were identical.
(§2) LC separation of the enzymatically generated products conducted at 50° C. with an Inertsil ODS-3 reverse-phase column (250 mm length, 2.1 mm internal diameter, 3 μM particle size; GL Sciences) using a 1100 series high-performance liquid chromatography system (Agilent Technologies). The mobile phase was composed of 0.2% formic acid in water (solvent A) and 0.2% formic acid in methanol (solvent B). Products were separated using the following gradient: 60% to 100% B for 10 min, held at 100% B for 2 min, 100% to 60% B for 1 min, held at 60% B for 17 min. A flow rate of 0.14 mL/min was used throughout.
(§3) The LC system was coupled to an Agilent Technologies LC-MSD SL electrospray ionization mass (ESI MS) spectrometer. Nitrogen gas was used as both the nebulizing and drying gas to facilitate the production of gas-phase ions. The drying and nebulizing gases were set to 10 L/min and 20 lb/in2, respectively, and a drying gas temperature of 300° C. was used throughout. ESI was conducted in the negative-ion mode with a capillary voltage of 4 kV. […] The instrument was tuned for a range of m/z 50 to 3000 via the Agilent ES tuning mix. Data acquisition and processing were performed by an Agilent Chemstation (Agilent Technologies; Santa Clara, Calif.).
The test system of data set [3] is CC(C)CC(=O)SCCNC(=O)CCNC(=O)[C@H](O)C(C)(C)COP(=O)(O)OP(=O)(O)OC[C@H]1O[C@@H](n2cnc3c(N)ncnc32)[C@H](O)[C@@H]1OP(=O)(O)O. The description is as above. In kind it is biochemical, Streptomyces aureofaciens Tü117. The note with it: other: KM of the starter acyl-CoA, 200 μM methylmalonyl-CoA, 500 μM NADPH, 0.5 μM LipPks1+TE, pH 7.2, 23° C.
Procedure: as §1, §2, §3
For data set [4], the system named is CC(C)(C)C(=O)SCCNC(=O)CCNC(=O)[C@H](O)C(C)(C)COP(=O)(O)OP(=O)(O)OC[C@H]1O[C@@H](n2cnc3c(N)ncnc32)[C@H](O)[C@@H]1OP(=O)(O)O. The data set is described as above. It counts as biochemical, Streptomyces aureofaciens Tü117. The note with it: other: KM of the starter acyl-CoA, 200 μM methylmalonyl-CoA, 500 μM NADPH, 0.5 μM LipPks1+TE, pH 7.2, 23° C.
Procedure: as §1, §2, §3
The subject of data set [5] is CC(C)C(=O)SCCNC(=O)CCNC(=O)[C@H](O)C(C)(C)COP(=O)(O)OP(=O)(O)OC[C@H]1O[C@@H](n2cnc3c(N)ncnc32)[C@H](O)[C@@H]1OP(=O)(O)O. The data set is described as above. It counts as biochemical, Streptomyces aureofaciens Tü117. The note with it: other: KM of the starter acyl-CoA, 200 μM methylmalonyl-CoA, 500 μM NADPH, 0.5 μM LipPks1+TE, pH 7.2, 23° C.
Procedure: as §1, §2, §3
Data set [6] has as its system CCC(=O)SCCNC(=O)CCNC(=O)[C@H](O)C(C)(C)COP(=O)(O)OP(=O)(O)OC[C@H]1O[C@@H](n2cnc3c(N)ncnc32)[C@H](O)[C@@H]1OP(=O)(O)O. Described as above. In kind it is biochemical, Streptomyces aureofaciens Tü117. The note with it: other: KM of the starter acyl-CoA, 200 μM methylmalonyl-CoA, 500 μM NADPH, 0.5 μM LipPks1+TE, pH 7.2, 23° C.
Procedure: as §1, §2, §3
Data set [7] has as its system CCCC(=O)SCCNC(=O)CCNC(=O)[C@H](O)C(C)(C)COP(=O)(O)OP(=O)(O)OC[C@H]1O[C@@H](n2cnc3c(N)ncnc32)[C@H](O)[C@@H]1OP(=O)(O)O. Nature of the data set: purified protein, by the assay type. The note with it: other: KM of the starter acyl-CoA, 200 μM methylmalonyl-CoA, 500 μM NADPH, 0.5 μM LipPks1+TE, pH 7.2, 23° C.

Regarding `CC(C)(COP(=O)(O)OP(=O)(O)OC[C@H]1O[C@@H](n2cnc3c(N)ncnc32)[C@H](O)[C@@H]1OP(=O)(O)O)[C@@H](O)C(=O)NCCC(=O)NCCSC(=O)CC(=O)O` [Malonyl-CoA], the “acceptance as extender substrate by the AT domain” value in data set [1] was “not accepted”.

One may read the kcat as the number of substrate molecules converted per active site and unit of time at saturation. As to `CC(C)C(=O)SCCNC(=O)CCNC(=O)[C@H](O)C(C)(C)COP(=O)(O)OP(=O)(O)OC[C@H]1O[C@@H](n2cnc3c(N)ncnc32)[C@H](O)[C@@H]1OP(=O)(O)O` [isobutyryl-CoA], in data set [2] (starter acyl-CoA 20-320 μM, 200 μM methylmalonyl-CoA, 500 μM NADPH, 0.5 μM LipPks1+TE, pH 7.2, 23° C.), the catalytic constant (kcat) turned out to be 0.000883 s⁻¹.

Regarding `CC(=O)SCCNC(=O)CCNC(=O)[C@H](O)C(C)(C)COP(=O)(O)OP(=O)(O)OC[C@H]1O[C@@H](n2cnc3c(N)ncnc32)[C@H](O)[C@@H]1OP(=O)(O)O` [acetyl-CoA], the “product formation with starter substrate” value in data set [2] (200 μM methylmalonyl-CoA with NADPH (data not shown)) is on record as “No product was observed”.

Broadly, the Km is the substrate concentration at which the rate is half of its maximum. One may read the kcat/Km as the second-order rate constant that governs catalysis at low substrate concentration. On to LipPks1+TE (Kitasatospora aureofaciens), for which the Km in data set [3] is 128.1 µM; in data set [4] it was 8.8 µM; in data set [5], 2.9 µM; in data set [6], 13.4 µM; in data set [7], 26.4 µM. The catalytic constant (kcat) in data set [3] amounted to 0.00483 s⁻¹; in data set [4], 3.33e-05 s⁻¹; in data set [5], 0.000883 s⁻¹; in data set [6] it was 0.000933 s⁻¹; in data set [7], 0.0006 s⁻¹. Also, the specificity constant (kcat/Km) in data set [3] was determined as 38 M⁻¹ s⁻¹; in data set [4], 4.1 M⁻¹ s⁻¹; in data set [5] it was 304.1 M⁻¹ s⁻¹; in data set [6] it was 70.3 M⁻¹ s⁻¹; in data set [7] it was 22.7 M⁻¹ s⁻¹.
